This note sets out measurements from the RNAGym collection of RNA variant scans (doi:10.7554/elife.80360).

To fix the notation:
B1: Hairpin Ribozyme (parent)
chain: GUCCUCUUUCACGUGCGCGUGAAAGAGAGAAGUGAACCAGAGAAACACACGUUGUGGUAUAUUACCUGGUA

The variants in this data set derive from B1. The data set is described as follows: self-cleavage, relative activity (ratio to wild type); higher = more cleavage; co-transcriptional.
Consider GUCCUCUUUCACGUGCGCGUGAAAGAGAGAAGUGAACCAGAGAAACAAAAGUUGUGGUAUAUUACCUGGUA, for which the self-cleavage worked out at 0.188.

For the variant GUCCUCUUUCACGUGCGCGUGAAAGAGAGAAGUGAACCAGAGAAACAAAUGUUGUGGUAUAUUACCUGGUA, the self-cleavage amounted to 0.131.

For GUCCUCUUUCACGUGCGCGUGAAAGAGAGAAGUGAACCAGAGAAACAAACGUUGUGGUAUAUUUCCUGGUA, the self-cleavage worked out at 0.0412.

Take GUCCUCUUUCACGUGCGCGUGAAAGAGAGAAGUGAACCAGAGAAACGCACGUUGUGGUAUAUUACCUGGUU: the self-cleavage worked out at 0.221.

Turning to GUCCUCUUUCACGUGCGCGUGAAAGAGAGAAGUGAACCAGAGAAACGCACGUUGUGGUAUAUUACCUGGUC, the self-cleavage amounted to 0.599.

Consider GUCCUCUUUCACGUGCGCGUGAAAGAGAGAAGUGAACCAGAGAAACGCACGUUGUGGUAUAUUACUUGGUA, for which the self-cleavage was found to be 0.239.

Consider GUCCUCUUUCACGUGCGCGUGAAAGAGAGAAGUGAACCAGAGAAACUCGCGUUGUGGUAUAUUACCUGGUA, for which the self-cleavage turned out to be 0.161.

For GUCCUCUUUCACGUGCGCGUGAAAGAGAGAAGUGAACCAGAGAAACUCACGUUGUGGUAUAUUACCUGGCA, the self-cleavage is 0.0521.

GUCCUCUUUCACGUGCGCGUGAAAGAGAGAAGUGAACCAGAGAAACUCACGUUGUGGUAUAUGACCUGGUA: the self-cleavage was 0.0673.

For GUCCUCUUUCACGUGCGCGUGAAAGAGAGAAGUGAACCAGAGAAACUCACGUUGUGGUAUAUAACCUGGUA, the self-cleavage worked out at 0.114.

Regarding GUCCUCUUUCACGUGCGCGUGAAAGAGAGAAGUGAACCAGAGAAACGCACGUUUUGGUAUAUUACCUGGUA, the self-cleavage came out at 0.163.

GUCCUCUUUCACGUGCGCGUGAAAGAGAGAAGUGAACCAGAGAAACGUACGUUGUGGUAUAUUACCUGGUA: the self-cleavage stood at 0.185.

Regarding GUCCUCUUUCACGUGCGCGUGAAAGAGAGAAGUGAACCAGAGAAACGCACGUUGUGUUAUAUUACCUGGUA, the self-cleavage turned out to be 0.179.

As for GUCCUCUUUCACGUGCGCGUGAAAGAGAGAAGUGAACCAGAGAAACCCACGCUGUGGUAUAUUACCUGGUA, the self-cleavage is 0.376.

Consider GUCCUCUUUCACGUGCGCGUGAAAGAGAGAAGUGAACCAGAGAAACCCACGGUGUGGUAUAUUACCUGGUA, for which the self-cleavage came out at 0.231.

Consider GUCCUCUUUCACGUGCGCGUGAAAGAGAGAAGUGAACCAGAGAAACUCACGUUGUGGCAUAUUACCUGGUA, for which the self-cleavage stood at 0.133.

GUCCUCUUUCACGUGCGCGUGAAAGAGAGAAGUGAACCAGAGAAACUCACGUUGUGGGAUAUUACCUGGUA: the self-cleavage was 0.137.

With GUCCUCUUUCACGUGCGCGUGAAAGAGAGAAGUGAACCAGAGAAACAAACGAUGUGGUAUAUUACCUGGUA, the self-cleavage was 0.233.

Take GUCCUCUUUCACGUGCGCGUGAAAGAGAGAAGUGAACCAGAGAAACAAACGUUGUGGUAUCUUACCUGGUA: the self-cleavage came to 0.201.

For GUCCUCUUUCACGUGCGCGUGAAAGAGAGAAGUGAACCAGAGAAACUCACGUUGUGGUAUAUUACCUGGUC, the self-cleavage was 0.304.

As for GUCCUCUUUCACGUGCGCGUGAAAGAGAGAAGUGAACCAGAGAAACAAACGUUGUGUUAUAUUACCUGGUA, the self-cleavage was determined as 0.115.

With GUCCUCUUUCACGUGCGCGUGAAAGAGAGAAGUGAACCAGAGAAACAAACGUCGUGGUAUAUUACCUGGUA, the self-cleavage came to 0.18.

For GUCCUCUUUCACGUGCGCGUGAAAGAGAGAAGUGAACCAGAGAAACGCACGAUGUGGUAUAUUACCUGGUA, the self-cleavage stood at 0.0547.

Turning to GUCCUCUUUCACGUGCGCGUGAAAGAGAGAAGUGAACCAGAGAAACCCACGUUGUGGUAUAUUACCUGGCA, the self-cleavage amounted to 0.298.

Consider GUCCUCUUUCACGUGCGCGUGAAAGAGAGAAGUGAACCAGAGAAACGCGCGUUGUGGUAUAUUACCUGGUA, for which the self-cleavage came out at 0.129.

For the variant GUCCUCUUUCACGUGCGCGUGAAAGAGAGAAGUGAACCAGAGAAACGCCCGUUGUGGUAUAUUACCUGGUA, the self-cleavage came out at 0.307.

On to GUCCUCUUUCACGUGCGCGUGAAAGAGAGAAGUGAACCAGAGAAACCCACGUUGUGGAAUAUUACCUGGUA, for which the self-cleavage was 0.316.

In the case of GUCCUCUUUCACGUGCGCGUGAAAGAGAGAAGUGAACCAGAGAAACGCACGUCGUGGUAUAUUACCUGGUA, the self-cleavage is 0.

For the variant GUCCUCUUUCACGUGCGCGUGAAAGAGAGAAGUGAACCAGAGAAACGCACGUAGUGGUAUAUUACCUGGUA, the self-cleavage worked out at 0.176.

For the variant GUCCUCUUUCACGUGCGCGUGAAAGAGAGAAGUGAACCAGAGAAACUCACGUUGUGGUAUAUUACCCGGUA, the self-cleavage is 0.0849.

With GUCCUCUUUCACGUGCGCGUGAAAGAGAGAAGUGAACCAGAGAAACUCACGUUGUGGUAUAUUACCGGGUA, the self-cleavage was determined as 0.185.

As for GUCCUCUUUCACGUGCGCGUGAAAGAGAGAAGUGAACCAGAGAAACUCACGUUGUGCUAUAUUACCUGGUA, the self-cleavage was determined as 0.157.

With GUCCUCUUUCACGUGCGCGUGAAAGAGAGAAGUGAACCAGAGAAACUCACGUUGUCGUAUAUUACCUGGUA, the self-cleavage amounted to 0.125.

As to GUCCUCUUUCACGUGCGCGUGAAAGAGAGAAGUGAACCAGAGAAACUCACGUUGUAGUAUAUUACCUGGUA, the self-cleavage was found to be 0.187.

Take GUCCUCUUUCACGUGCGCGUGAAAGAGAGAAGUGAACCAGAGAAACCCACGUUGGGGUAUAUUACCUGGUA: the self-cleavage is 0.136.

As for GUCCUCUUUCACGUGCGCGUGAAAGAGAGAAGUGAACCAGAGAAACUCACGUUGUGGUAUAGUACCUGGUA, the self-cleavage is 0.158.

Regarding GUCCUCUUUCACGUGCGCGUGAAAGAGAGAAGUGAACCAGAGAAACGCACGUUGUGGUAUAUUUCCUGGUA, the self-cleavage stood at 0.167.

Take GUCCUCUUUCACGUGCGCGUGAAAGAGAGAAGUGAACCAGAGAAACUCACGUUGUGGUAUGUUACCUGGUA: the self-cleavage stood at 0.147.
